According to paper PMC3979721, “Biochemical Properties of Ectoine Hydroxylases from Extremophiles and Their Wider Taxonomic Distribution among Microorganisms” (PLoS ONE, 2014):

Key:
[1] = substrate: CC1=N[C@H](C(=O)O)CCN1; assay: HPLC assay of 5-hydroxyectoine formation; format: biochemical, Acidiphilium cryptum; conditions: apparent, with 2-oxoglutarate, Fe(II), O2, optimum pH 8.0, 32 °C and optimised salt, kcat per homodimer
Text: (§1) HPLC assay of 5-hydroxyectoine formation on EctD from A. cryptum

[2] = substrate: O=C(O)CCC(=O)C(=O)O; assay: HPLC assay of 5-hydroxyectoine formation; format: biochemical, Acidiphilium cryptum; conditions: apparent, co-substrate, with ectoine, Fe(II), O2, pH 8.0, 32 °C
Text: as §1

[3] = substrate: CC1=N[C@H](C(=O)O)CCN1; assay: HPLC assay of 5-hydroxyectoine formation; format: biochemical, Virgibacillus salexigens; conditions: apparent, with 2-oxoglutarate, Fe(II), O2, TES buffer, optimum pH 7.5, 32 °C and optimised salt, kcat per homodimer
Text: (§2) HPLC assay of 5-hydroxyectoine formation on EctD from V. salexigens (VsEctD)

[4] = substrate: O=C(O)CCC(=O)C(=O)O; assay: HPLC assay of 5-hydroxyectoine formation; format: biochemical, Virgibacillus salexigens; conditions: apparent, co-substrate, varied 0-50 mM, with ectoine, Fe(II), O2, pH 7.5, 32 °C
Text: as §2

[5] = molecular target: the molecule itself; assay: SEC; 1 ml of protein at 5 mg/ml on a HiLoad 16/600 Superdex 200 pg column, 20 mM TES-buffer containing 150 NaCl; size against standards of 29, 66 and 150 kDa (Fig. S6)
[6] = substrate: CC1=N[C@H](C(=O)O)CCN1; assay: HPLC assay of 5-hydroxyectoine formation; format: biochemical, Sphingopyxis alaskensis; conditions: apparent, with 2-oxoglutarate, Fe(II), O2, optimum pH 8.0, 40 °C and optimised salt, kcat per homodimer
Text: (§3) HPLC assay of 5-hydroxyectoine formation on EctD from S. alaskensis

[7] = substrate: O=C(O)CCC(=O)C(=O)O; assay: HPLC assay of 5-hydroxyectoine formation; format: biochemical, Sphingopyxis alaskensis; conditions: apparent, co-substrate, with ectoine, Fe(II), O2, pH 8.0, 40 °C
Text: as §3

[8] = substrate: CC1=N[C@H](C(=O)O)CCN1; assay: HPLC assay of 5-hydroxyectoine formation; format: biochemical, Stutzerimonas stutzeri; conditions: apparent, with 2-oxoglutarate, Fe(II), O2, optimum pH 7.5, 35 °C and optimised salt, kcat per homodimer
Text: (§4) HPLC assay of 5-hydroxyectoine formation on EctD from P. stutzeri

[9] = substrate: O=C(O)CCC(=O)C(=O)O; assay: HPLC assay of 5-hydroxyectoine formation; format: biochemical, Stutzerimonas stutzeri; conditions: apparent, co-substrate, with ectoine, Fe(II), O2, pH 7.5, 35 °C
Text: as §4

[10] = substrate: CC1=N[C@H](C(=O)O)CCN1; assay: HPLC assay of 5-hydroxyectoine formation; format: biochemical, Halomonas elongata; conditions: apparent, with 2-oxoglutarate, Fe(II), O2, optimum pH 8.0, 32 °C and optimised salt, kcat per homodimer
Text: (§5) HPLC assay of 5-hydroxyectoine formation on EctD from H. elongata

[11] = substrate: O=C(O)CCC(=O)C(=O)O; assay: HPLC assay of 5-hydroxyectoine formation; format: biochemical, Halomonas elongata; conditions: apparent, co-substrate, with ectoine, Fe(II), O2, pH 8.0, 32 °C
Text: as §5

B1: EctD from A. cryptum (Acidiphilium cryptum JF-5) (protein)
chain: MDDLYPSRREPTPSLLPRHDPVVHGRWAPGAPLSDEQTRFYDTNGYLVLENVFDPAEIALLQSGSMDLLANPAGLDRETIITERGSDEVRSIFAIHAQNELLGRLAADSRIAGVARFLLDDDVYIHQSRLNYKPGFDGKEFYWHSDFETWHVEDGMPRMRALSMSILLAENTANNGPLMVIPGSHRKYLTCVGETPENHYRSSLKKQEYGVPDREMLTALASDHGIVAPTGKAGTVVLFDCNTMHGSNGNITPFPRSNAFFVFNAKANSLVEPFGPKSRRPDFIADRAFTTVDIVKGPLVRRERAA
notes: homodimer
Km [1]: 10.0 ± 0.6 mM
kcat [1]: 3.4 s⁻¹
kcat/Km [1]: 340 M⁻¹ s⁻¹
Km [2]: 4.1 ± 0.4 mM

B2: EctD from V. salexigens (VsEctD) (Virgibacillus salexigens) (protein)
chain: MEDLYPSRQNNQPKILKRKDPVIYTDRSKDNQAPITKEQLDSYEKNGFLQIKNFFSEDEVIDMQKAIFELQDSIKDVASDKVIREPESNDIRSIFHVHQDDNYFQDVANDKRILDIVRHLLGSDVYVHQSRINYKPGFKGKEFDWHSDFETWHVEDGMPRMRAISVSIALSDNYSFNGPLMLIPGSHNYFVSCVGETPDNNYKESLKKQKLGVPDEESLRELTRIGGGISVPTGKAGSVTLFESNTMHGSTSNITPYPRNNLFMVYNSVKNRLVEPFSGGEKRPEYIAVREKQPVYSAVN
notes: homodimer
Km [3]: 5.9 ± 0.3 mM
kcat [3]: 7.7 s⁻¹
kcat/Km [3]: 1310 M⁻¹ s⁻¹
Km [4]: 4.9 ± 0.3 mM

B3: Sphingopyxis alaskensis EctD protein (ectoine hydroxylase) (enzyme, UniProt Q1GNW5 1-306, looked up)
chain: MQDLYPSRQRADAEMRPRLDPVVHSEWTNDAPISARQAAAFDRDGYIVLEDIFSADEVAFLQKAAGNLLADPAALDADTIVTEPQSNEIRSIFEIHAQSPVMARLAADARLADVARFLLGDEVYIHQSRLNYKPGFKGREFYWHSDFETWHVEDGMPRMRALSMSVLLAENTPHNGPLMVIPGSHRTYLTCVGETPDDHYLSSLKKQEYGVPDEESLAELAHRHGIVAPTGKPGTVILFDCNLMHGSNGNITPFPRANAFLVYNAVSNRLEKPFGVEKPRPWFLARRGEPAALRVERGPLVETVPA
notes: Ectoine hydroxylase EctD of Sphingopyxis alaskensis; ectD gene amplified from chromosomal DNA; 35.29 kDa with the nine-residue Strep-tag II peptide; Contains about 0.87-0.96 mol iron per mol protein; also called EctD from S. alaskensis; S. alaskensis enzyme; not shown: Strep-tag II, C-terminal, kept
stoichiometry N [5]: 2
Km [6]: 9.8 ± 0.5 mM
kcat [6]: 1.2 s⁻¹
kcat/Km [6]: 120 M⁻¹ s⁻¹
Km [7]: 2.7 ± 0.3 mM

B4: EctD from P. stutzeri (Stutzerimonas stutzeri A1501) (protein)
chain: MQADLYPSRQEDQPSWQERLDPVVYRSDLENAPIAAELVERFERDGYLVIPNLFSADEVALFRAELERMRQDPAVAGSGKTIKEPDSGAIRSVFAIHKDNELFARVAADERTAGIARFILGGDLYVHQSRMNFKPGFTGKEFYWHSDFETWHIEDGMPRMRCLSCSILLTDNEPHNGPLMLMPGSHKHYVRCVGATPENHYEKSLRKQEIGIPDQNSLSELASRFGIDCATGPAGSVVFFDCNTMHGSNGNITPSARSNLFYVYNHVDNAVQAPFCEQKPRPAFVAERENFKPLDIRPQQYL
notes: homodimer
Km [8]: 6.2 ± 0.4 mM
kcat [8]: 8.9 s⁻¹
kcat/Km [8]: 1440 M⁻¹ s⁻¹
Km [9]: 4.6 ± 0.5 mM

B5: EctD from H. elongata (Halomonas elongata DSM 2581) (protein)
chain: MSVQTSSNRPLPQANLHIATETPEADSRIRSAPRPGQDPYPTRLSEPLDLPWLNRREPVVKGEEADGPLSAAQLDTFERQGFIFEPDFLKGEELEALRHELNALLARDDFRGRDFAITEPQGNEIRSLFAVHYLSRVFSRLANDERLMGRARQILGGEPYVHQSRINYKPGFEGKGFNWHSDFETWHAEDGMPAMHAVSASIVLTDNHTFNGPLMLVPGSHRVFVPCLGETPEDHHRQSLKTQEFGVPSRQALRELIDRHGIEAPTGAAGGLLLFDCNTLHGSNANMSPDPRSNAFFVYNRRDNRCVEPYAASKRRPRFLAHEPDEAWSPDG
notes: homodimer
Km [10]: 5.7 ± 0.6 mM
kcat [10]: 2.8 s⁻¹
kcat/Km [10]: 490 M⁻¹ s⁻¹
Km [11]: 4.8 ± 0.4 mM
kcat [11]: 2.8 s⁻¹
kcat/Km [11]: 490 M⁻¹ s⁻¹
